From the RNAGym collection of RNA variant scans (doi:10.1073/pnas.2313332121) come the findings set out here.

B1: TPR 5TU (parent)
chain: GGAUCUUCUCGAUCUAACAAAAAAGACAAAUCUGCCACAAAGCUUGAGAGCAUCUUCGGAUGCAGAGGCGGCAGCCUUCGGUGGCGCGAUAGCGCCAACGUUCUCAACUAUGACACGCAAAACGCGUGCUCCGUUGAAUGGAGUUUAUCAUG

Fewer inactive variants are shown than the library holds. Where only a bound is given, the exact number is not on record here.

The variants in the data set derive from B1. As to the kind of experiment: polymerase ribozyme fitness, log enrichment relative to wild type (log ratio); higher = more active; in vitro selection for triplet polymerase activity. A digest of the protocol: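 To select mutant libraries of each subunit of a heterodimeric triplet polymerase ribozyme, built by PCR and transcribed, each was annealed with a biotinylated primer, partner subunit and triplets, then incubated frozen at −7 °C. Extended constructs were gel-excised, captured on streptavidin beads and amplified by RT-PCR, in one round carried out in triplicate. Illumina sequencing of input and output libraries kept genotypes with ≥10 input reads and ≥1 read per output. Fitness is the base-2 logarithm of genotype enrichment relative to wild-type enrichment, from inverse-variance-weighted replicate averages.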
In the case of U31G C95A, the “polymerase ribozyme fitness (log ratio)” value stood at 0.165.
With U31G C95U the figure was 0.463.
With U31G U148C the figure was -2.37; with C32G C54A C75U U77A C85U A106G U135C, at most -4.2; with U31C A121C U134A, -1.76.
In the case of C32A A47U C87U it was at most -4.2; in that of C32A A39U C79A C85A C129G, at most -4.2.
Take C32G A49U G65U C93U C99G A110U A147U: the “polymerase ribozyme fitness (log ratio)” value is at most -4.2.
As for U31G U33A C75G A91G G140A G152A, the “polymerase ribozyme fitness (log ratio)” value was -3.96.
For C32A C38A U56A C69U C93A A122C G126U, the “polymerase ribozyme fitness (log ratio)” value is at most -4.2.
In the case of U31C G86U C96U it was -0.694; in that of U31G U56A G80C C87G C99G, at most -4.2.
In the case of C32A A89C C95A it was at most -4.2; in that of C32G C38U G58A U82A C96A U104G A110C G133A U139A G152U, at most -4.2.
With U31G U45A A49C G84A A113G A142C the figure was at most -4.2; with C32G C35A, -3.92.
Turning to C32G C76U G88C C96A C103U U127G C129A U139A A142U, the “polymerase ribozyme fitness (log ratio)” value was at most -4.2.
Turning to U31C C87A, the “polymerase ribozyme fitness (log ratio)” value was -4.2.
In the case of C32G A110G A122C G141C it was -4.02; in that of U31G U53A C95U U135G, -3.6.
With C32A U61G U82A G92U C99G the figure was at most -4.2.
In the case of U31G C95G C105G it was at most -4.2; in that of U31G U53A A89C C93G G100A A137C A147U G152C, at most -4.2; in that of C32A U55A C76U A89G G92U A119G, at most -4.2.
Take U31C C95G: the “polymerase ribozyme fitness (log ratio)” value is -0.224.
With C32G A37C C85G the figure was at most -4.2; with C32G A52C U61A G62C C63A C75U C93U, -4.14; with U31C G34U A52U U56A A60G G84A G92A C95G C105A A110C G133C U148A, at most -4.2.
With U31G C99U C116U A137G the figure was -1.84; with C32A C85U, -4.06.
Regarding U31G A37U A41C C75U C76G C96U C105U G117U G133U U134C, the “polymerase ribozyme fitness (log ratio)” value was at most -4.2.
With C32A A91U C99U A120C the figure was at most -4.2; with U31C C76U C93G U102C U145G, at most -4.2; with C32A G74C G81C G94A A121U, -4.03.
Take U31C C54A C93G: the “polymerase ribozyme fitness (log ratio)” value was at most -4.2.
With U31C U33C G50U C76U G83C the figure was at most -4.2.
Take C32A U33G A66G G83A U102G C118G G124C G141C G143U: the “polymerase ribozyme fitness (log ratio)” value is at most -4.2.
For C32A C35U C57G G62A U90C C103G C116U C149U, the “polymerase ribozyme fitness (log ratio)” value is at most -4.2.
On to U31G A40G U61A C87U G112U G141C, for which the “polymerase ribozyme fitness (log ratio)” value was at most -4.2.
In the case of U31G A89C C95G C99A it was at most -4.2; in that of C32A U45A A60G C75U G81A U90G C116A, at most -4.2; in that of C32G A37C G140C, at most -4.2.
As for C32A C87A C93U, the “polymerase ribozyme fitness (log ratio)” value was at most -4.2.
With U31C C43A A66C C79U C85A A120C G140U the figure was at most -4.2; with U31C A47U G88A C108A, at most -4.2.
Take C32G C54U A73C C79U C87G U145G: the “polymerase ribozyme fitness (log ratio)” value was at most -4.2.
With U31G C116G U144C the figure was -4.03; with U31C C38G A47G C51A U56A G83C U146C U148C, at most -4.2; with C32A G84U A97G C131U U139C, at most -4.2.
With C32G A91C U139G the figure was at most -4.2; with C32A A37U U56A G74A C76G G86A A115G G124A U151G, at most -4.2; with C32G A52U C99U A106G G124U C131A, at most -4.2.
As for C32G C43U C54U A73G U77G, the “polymerase ribozyme fitness (log ratio)” value is at most -4.2.
In the case of C32A A49U G68U C79G C85U U127G it was at most -4.2.
As to U31C G42A U44G A60G A66G U82A C85A G128A, the “polymerase ribozyme fitness (log ratio)” value was at most -4.2.
With U31C U101C G124A the figure was 1.05.
On to U31C C35G C36U C51G G92C U109A U151A, for which the “polymerase ribozyme fitness (log ratio)” value is at most -4.2.
In the case of U31G C35A G42A, the “polymerase ribozyme fitness (log ratio)” value is at most -4.2.
Regarding U31G G58A C85A C114G A115U, the “polymerase ribozyme fitness (log ratio)” value is -4.05.
For C32A C87U, the “polymerase ribozyme fitness (log ratio)” value was -3.44.
With U31C U102A the figure was 0.128; with C32A G50A A137G, at most -4.2; with U31C A52C C57U G59C C99U U145G, -3.63.
Regarding U31G G83U G126C, the “polymerase ribozyme fitness (log ratio)” value was -0.857.
With U31G A122U A142C the figure was -1.56; with U31G A40G G83C A142G, at most -4.2.
With U31C G50A C96G the figure was -0.777.
In the case of U31C G84A it was 0.831; in that of C32A A41C C51U G58A C69U C93U C108U, at most -4.2; in that of C32A A39U G58A C72U G80U G83A, at most -4.2.
Turning to C32G A37G G83U C87G A89G G133C, the “polymerase ribozyme fitness (log ratio)” value is at most -4.2.
With C32G A47C G74C C116U C132A A138U the figure was at most -4.2; with U31C C69U G86U C96U, -3.55.
With U31G C57G G58A A106G U111G G143U U144A the figure was at most -4.2; with U31G G65A, -1.83.
In the case of U31G G65U it was at most -4.2.
For the variant U31C C99G C103U, the “polymerase ribozyme fitness (log ratio)” value was -0.958.
Regarding C32A G58C A64U C85G, the “polymerase ribozyme fitness (log ratio)” value is at most -4.2.
With C32G C51U U53A G94A U101A A122G the figure was at most -4.2.
With U31G C125U U130A the figure was at most -4.2.
In the case of U31G G59A G92U, the “polymerase ribozyme fitness (log ratio)” value was -0.919.
With C32A C75G G92A A150U the figure was at most -4.2; with U31G U145A, 0.652; with U31G G42C G50C C57A C79G G80C G136C, at most -4.2.
